Test results published in patent US20130177979A1, “METHODS AND COMPOSITIONS FOR CELL PERMEABLE STAT3 INHIBITOR” (University of Central Florida Research Foundation, Inc., priority 2010, published 2013).

Assays:
PpYLKTK (pY705 Stat3) = target: T1, PpYLKTK (pY705 Stat3) (Homo sapiens, UniProt P40763); assay: SPR binding to Stat3-derived pTyr705 peptide PpYLKTK; settings: immobilized on sensor chip, PpYLKTK as analyte
T1 construct: the Stat3-derived pTyr705 peptide, PpYLKTK
Protocol: (§1) Association and dissociation measurements were taken and the affinities were determined using Qdat software.
(§2) Surface plasmon resonance analysis. […] Various concentrations of pTyr peptides (analyte) in running buffer (1×PBS, 0.5% DMSO) were passed over the sensor chip to produce response signals. The response signals were referenced by subtracting the response generated by passing across a surface without the analytes. The association and dissociation rate constants were calculated using the Qdat software. The ratio of the association and dissociation rate constants was determined as the affinity (KD).

PEpYINQS (pY1068EGFR) = target: T2, PEpYINQS (pY1068EGFR) (Homo sapiens, UniProt P00533); assay: SPR binding to EGFR pY1068 peptide PEpYINQS; settings: immobilized on sensor chip, PEpYINQS as analyte
T2 construct: the pY1068 of EGFR, PEpYINQS
Protocol: as §1, §2

PVpYHNQP (pY1086EGFR) = target: T3, PVpYHNQP (pY1086EGFR) (Homo sapiens, UniProt P00533); assay: SPR binding to EGFR pY1086 peptide PVpYHNQP; settings: immobilized on sensor chip, PVpYHNQP as analyte
T3 construct: the pY1086 peptide of EGFR, PVpYHNQP
Protocol: as §1, §2

GpYIKTE (pY701Stat1) = target: T4, GpYIKTE (pY701Stat1) (Homo sapiens, UniProt P42224); assay: SPR binding to Stat1 pY701 peptide GpYIKTE; settings: immobilized on sensor chip, GpYIKTE as analyte
T4 construct: the Stat1 pY701 peptide, GpYIKTE
Protocol: as §1, §2

GpYVKPQ (pY694Stat5) = target: T5, GpYVKPQ (pY694Stat5) (Homo sapiens, UniProt P42229); assay: SPR binding to Stat5 pTyr peptide GpYVKPQ; settings: immobilized on sensor chip, GpYVKPQ as analyte
T5 construct: the pTyr peptide of Stat5, GpYVKPQ
Protocol: as §1, §2

GpYLPQTV (IL-6R/gp130) = GpYLPQTV (IL-6R/gp130) (Homo sapiens, UniProt P40189, S904G); settings: SPR; SPI, Stat3 SH2 domain or Stat3 immobilized on sensor chip, GpYLPQTV as analyte
Protocol: as §1, §2

Substance | Kd (PpYLKTK (pY705 Stat3)) [µM] | Kd (PEpYINQS (pY1068EGFR)) [µM] | Kd (PVpYHNQP (pY1086EGFR)) [µM] | Kd (GpYIKTE (pY701Stat1)) [µM] | Kd (GpYVKPQ (pY694Stat5)) [µM] | Kd (GpYLPQTV (IL-6R/gp130)) [µM]
Stat3 SH2 domain: Purified His-tagged Stat3 SH2 domain, recombinant protein expressed in BL21(DE3) cells (FISKERERAILSTKPPGTFLLRFSESSK) | 1.6 | 0.4 | 2.6 | 6.6 | 5200 | 0.03
full-length Stat3: Purified His-tagged Stat3 protein, recombinant, expressed in BL21(DE3) cells | 0.9 | – | – | 4.4 | 1200 | 0.02
